Assay results as given in the nanobody polyreactivity screen of Harvey et al. (2022).

Test: yeast display, Sf9 membrane polyspecificity reagent, FACS + sequencing; frameworks hold sequencing errors
How it was run: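 A synthetic nanobody library was expressed on Saccharomyces cerevisiae BJ5465 by galactose induction for 36–48 hours. The library was stained for 1 hour at 4 °C with 10% biotinylated, detergent-solubilized Sf9 membrane reagent and enriched with streptavidin microbeads before FACS. Low and high (top ~1%) gates were set on anti-HA fluorescence for expression and streptavidin fluorescence for reagent binding, and each polyreactivity label reflects the gate of origin.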

| Sequence | polyreactivity (PSR sort gate) |
| --- | --- |
| QVQLVESGRGLVQAGGSLRLSCAPSGLNFVRYAMGWYRQAPGKERELVARITSRGTSTYYADSVKGRFTISRDNAKNTVYLQMNSLKPEDTAVYYCIKFRSFRDKTRYDYWGQGTQVTVSS | low polyreactivity |
| QVQLVESGGGLVQAGGSLRLRCAASGFTFYRYAMGWYRQAPGKERELVAAISQRGGTTYYADSVKGRFTISRDNSKNTVYLQMNSLKPDDPAVYYCAARGRAYQNAYEYDYWGQGTQVTVSS | high polyreactivity |
| QVQLVESGGGLVQAGGSLRLSCAASGRTFYPYAMGWSRQAPGKERELVAAISWNGGRTYYADSVKGRFTISRDNAKNTVYLQMNSLKPEDTAVYYCAADTAYYDFDYWGQGTQVTVSS | low polyreactivity |
| QVQLEESGGGLVQAGGRLRLSCAASGSIWSYAMGWYRQAPGKERELVAAISSTGGSTYYADSVKGRFTISRDNAKNTVYLQMNSLKPEDTAVYYCAKGRRYDQSHYNYWGQGTQVNVSS | high polyreactivity |
| QVQLGESGGGLVQAGRSLRLSCAASGSTIGPDAMGWYRQAPGTERELVAAIRYSSVRTYYADSVKGRFTISRDNAKNSVYVQMNSLKPEDTAVYYCNAVFWSYTVWGRSDYWGQGTQVTVSS | low polyreactivity |
| QVQLVESGGGLVQAGGSLRLSCAASGSTFYKYAMGWYRPAPGKESELVAAISRGGSTYYADSVKGRFTISRDNAKNTFYLQMNSLKPEDTAVYYCAAETVSYYSKYDYWGQGTQVTVSS | low polyreactivity |
| QVQLVESGGGLVQAGGSLRLSCAASGNIFWWNAMGWYRQAPGKERELVAAITSDSTTYYADSVKGRFTISRDNAKNTVYLQMNSLKPEDTAVYYCNTVAYLRRFDKWGMNYWGQGTQVTVSS | low polyreactivity |
| QVQLVESGGGLVQAGGSLRLSCAASGSILWHYAMGWYRQAPGKERELVAAISGSGRTNYADSVKGRFTISRDNAKNTVYLQMNSLKPEDTAVYYCARVHGTSESKYYYWGQGTQVTVSL | low polyreactivity |
| QLQLVESGGGLVQAGGSLRLSCAATGFIFRYYVMGWYRQAPGKERELVAAITSGSTYADSVKGRFTISRDNAKNTVYLQMISLKPEDTAVYYCAAVKSQRGGPYSRGGKFGYWGQGTQVTVSS | high polyreactivity |
| QVQLVESGGGLVQAGGSLRLSCAASGRIFGIYAMGWHRQAPGKERELVASITDGTITNYADSVKGRFTISRDNAKNTVYLQMNSLKPEDTAVYYCAAGTQAHAYVVRPIEMDYSGQGTQVTVSS | low polyreactivity |
| QDQLVESVGGLDQAGGSLPLSCDASGSIFPDYAMGWYRPAPGKERELVAAITSSGSTNNADSVKGLFTISRDNAKNTVYLQMNSLNPEDTAVYYCNAVVVQEESGYTRYDYWGQGTQVTVSS | low polyreactivity |
| QVQLVESGGGLVQAGGSLRLSCAASGRIFGYNGMGWYRQAPGKERELVAAITSGGRTYYADSVKGRFTISRDNAKNTVYLQMNSLKPEDTAVYYCAAYFYQRGYGYVGPYGYWGQGTQVTVSS | high polyreactivity |
| QVQLVESGGGLVQAGGSLRLSCAASGFTFVPNTMGWYRQAPGKERELVARIRWRGGSTYYADSVKGRFTISRDNAKNTVYLQMNSLKPEDTAVYYCNAVRGYDARPYSEVYHGEKYYYWGQGTQVTVSS | low polyreactivity |
| QVQLVESGGGLVQAGGSLRLSCDASGSTFAYNVMGWYRQAPGKERELVAAISRSGGSTYYADSVKGRFTISRDNAKNTVYLQMNSLKPEDTAVYYCAKLFRPRLQDGYWGQGSQVTVSS | high polyreactivity |
| QVQLVESGRGLVQAGGSLRLSCAASGRIFDHYAMGWYRQAPGKERELVAAITWSGANTYYADSVKGRFTISRDNAKNTVYLQMNSLKPEDTAVYYCAAYNGAHSHFGYWGQGTQVTVSS | low polyreactivity |
| QVQLVESGGGLVQAGGSLRLSCAASGSIFERNAMGWYRQAPGKERELVAVITGSGGSTYYADSVKGRFTISRDNAKNTVYLQMNSLKPEDTAVYYCAAPVHTASGRWVPGYYYWGQGTQVTVSS | high polyreactivity |
| QVQLVESGGGLVQAGGSLRLSCAASASIFDIYGMGWYRKAPGKERELVASISGGAGSTNYADSVKGRFTISRDNAKNTVYLQMNSLKPEDTAVYYCAADSADPTEYDYWGQGTQVTVSS | low polyreactivity |
| QVQLVESWGGLVQAGGSLRLSCAASGNLFADYAMGWYRQAPGTERELVAAISRGGITSYADSVKGRFTISRDNAKNTVYLQMNSLKPEDTAVYYCATDRYDVYDSLGFGYWGQGSQVTVSS | low polyreactivity |
| QVQLVESGGGLVQAGGSLRLSCAASGSIFRGNAMGWYRQAPGKERELVAAITRSGGRTYYADTVKGRFTISRDNAKNTVYLHMNSLKPEDTAVYYCAAEYYTRLGYWGQGTQVTVSS | high polyreactivity |
| QVQLVESGGGLVQAGGSLRLSCAASGSIFLTYAMGWYRQAPGKERELVAAISSSVGSTNYADSVKGRFTISRDNAKNTVYLQMNSLKPEDTAVYYCNATGVQYFLYGYWGQGTQVTVSS | low polyreactivity |
| QVQLVESGLGLVQAGGSLSLSCAASGIIFSWNSMGWYIEAPGKERELVAAITRGGGGTTYYADYVKGRFTISRDKAKNTVYLQMNSLKPEDTAVYYCAKAYEVRFEVDYCGQGTQVTVSS | low polyreactivity |
| QVQLVESGGGLVQAGGSLRLSCAASGGTFQYYTMGWYRQAPGKERELVAGISSGGSTYYADSVKGRFTISRDNAKNTVYLQMNSLKPEDTAVYYCNAVSRRKTYGYRIIKYDYWGQGTQVTVSS | high polyreactivity |

| Sequence | polyreactivity (PSR sort gate) |
| --- | --- |
| QVQLVESGGGLVQAGGSLRLSCAASGSIFPSNAMGWYRQAPGKERELVAAINRDGITNYADSVKGRFTISRDNAKNTVYLQMNSLKPEDTAVYYCNAYNYDFYASFWYEVDYWGLGTQVTVSS | low polyreactivity |
| QVQLVESGGGLVQAGGSLRLSCAASGSTFVQNAMGWYRQAPGKERELVAAISLRGGSTYYADSVKGRFTISRDNAKNTVYLQMNSLKPEDTAVYYCAADVSQRDGSVRGYDSWGQDTQVTVSS | high polyreactivity |
| QVQLVESGGGLVQAGGSLRLSCAASGSIFSLYAMGWYRQAPGKERELVAAITTSGGRTYYADSVKGRFTISRDNAKNTVYLQMNSLKPVDTAVYYCAKRYSTPYLTDNFLSGPGYYYWGQGTQVTVSS | high polyreactivity |
| QVQLVESGGGLVQAGGSLRLSCAASGNIFAYYALGWYRQAPGKEREFVAAIRSSGVSTYYADSVKGRFTISRDNAKNTVYLQMNSLKPEDTAVYYCAADSITGGWLIVSPPYNYTYDYWGQGTQVTVSS | low polyreactivity |
| QVQLVESGGGVVQAGGSLRLSCAASGFTFARYTMGWYRPAPGKERELVAAISSRGSSTYYADSVKGRFTISRDNAKNTVYLQMNSLKPEDTAVYYCAKAYYTPYGVYVLHYYWGQGTQVTVSS | high polyreactivity |
| QVQLVESGGGLVQAGGSLRLSCAASGRTFNKYAMGWYRKAPGKERELVAAINYSGGRTYYADSVKGRFTISRDNAKNTVSLQMNSLKPEDTAVYYCNRDDAWQEYDYWGQGTQVTVSS | low polyreactivity |
| QVQLVESGGGLVQAGGSLRLSCAASGRIFYGNVMGWYRQAPGKERELVAVITSGGNTNYADSVKGRFTISRDNAKNTVYLQMNSLKPEDTAVYYCATAVVAGVWGYDYWGQGTQVTVSS | low polyreactivity |
| QVQLVESGGGLVQAGGSLRLSCAASGSIFSENTMGWYRQAPGKKRELVADITSGGSTNYADSVKGRFTISRDNAKNTVYLQMNSLKPEDTAVYYCNADWEAYKYNYWGQGTQVTVSS | low polyreactivity |
| QVQLVDSGGGLVQAGGSLRLSCAASGGTFDWYTMGWYRQAPGKERELVADITSGGSTYYADSVKGRFTISRDNAKNTVYLQMNSLKPEDTAVCYCATTVYSTSGYPYDYWGQGTQVTVSS | high polyreactivity |
| QVQLVESGGGLVQAGGSLRLSCAASGSIFHPYTMGWSRQAPGKERELVAAISWSGGRTYYADSVKGRFTISRDNAKNTVYLQMNSLKPEDTAVYYCAADVTLWYDSWGQGTQVTVSS | low polyreactivity |
| QVQHVESGGGLVQAVGSLRLSFAASGSIFRGYAMGGYRPAPGKERELVAAIRYSGARTYYADSVKGRFTISRDNAKNTVYLQMNSLKPEDTAVYYCNARSYSRTHYDYWGQGTQVTVSS | high polyreactivity |
| QVQLVESGGGLVQAGGSLRLSCAASGNTFANYAMGWYRQAPGKERELVAAITSNGGSTYYADSVKGRFTISRDNAKNTVYLQMNSLKPEDTAVYYCAADAAYYSGYDYWGQGTQVTVSS | low polyreactivity |
| QVQLVESGGGLVKAGGSLRLSCAASGSTFSRYAMGWYRQAPGKEREFVADITFRTSSTNYADSVKGRFTISRDNAKNTVYLQMNSLKPEDPAVYYCATDTQYKSYAHDYWGQGTQVTVSS | low polyreactivity |
| QVQLVESGGGLVQAGGSLRLSCAASGLIFRYYAMGWYRQAPGKERELVATIRGGGSTYYADSVKGRFTISRDNAKNTVYLQMNSLKPEDTAVYYCAADPYSYGARGARGDYWGQGTQVTVSS | low polyreactivity |
| QVQLVESGGGLVQVGGSLRLSCAASGITLSYYAMGWYRQAPGKERELVASITVSRTSTYYADSVKGRFTISRDNAKNSVYLQMNSLKPEDTAVYYCAAYAYQYRFSGYGYWGQGTQVTVSS | low polyreactivity |
| QVQLVESGGGLVQAGGSLRLSCAASGRTFKWYAMGWYRQAPGKERELVAAITTGGNTYYADSVKGRFTISRDNAKNTVYLQMNSLTPEDTAVYYCARVPTQGYNPYEYWGQGTQVTVSS | low polyreactivity |
| QVQLVESGGGLVQAGGSLRLSCAASGRIFPFYAMGWYRKAPGKERELVARITLSGGSTYYADSVKGRFTISRDNAKNTVYLQMNSLKPEDTAVYYCAADRTSWSVLDFDYWGQGTQVTVSS | low polyreactivity |
| QVQVVESGGGLVQAGGSLRLSCAASGSTFGVYAMGWYRQAPGKEWELVAAISASTGSTYYADSVKGRFTISRDNAKQTVYLQMNSRKPEHTAVYYCAAAGYGKVRGDYWGQGTQVTVTS | low polyreactivity |
| QVQHVESGGGLDQAGGSLRLSCAASGSILTRYVMGWYRQAPGKERELVAAISQRGGSTYYADSVTGRFTISRDTAKYTVFLQMNSLKPEDTAVYYCAAETRVTSRRRFDYWGQGTQVTVSS | high polyreactivity |
| QVQLVESGGGLVQAGGSLRLSCAASGRIFRWYALGWYRQAPGKERELVAAISSRGGSTYYADSVKGRFTISRDNAKNTVYLQLNSLKPEDTAVYYCAADTSGWQPRYDYWGQGTQVTVSS | high polyreactivity |
| QGQLVESGGGLVQAGGSLRLSCAASGFIFRYYTMGWYRQAPGKERELVAAITSRGGSTYYADSVKGRFTISRDNAKNTFYLQMNSLKPEDTAVYYCATTRWGYEYWGQGTQVTVSS | high polyreactivity |
